Measured values published in IntAct's records for PubMed 22648170.

B1: Disabled homolog 2 (Mus musculus), P98078-1 (parent)
chain: MSNEVETSTTNGQPDQQAAPKAPSKKEKKKGSEKTDEYLLARFKGDGVKYKAKLIGIDDVPDARGDKMSQDSMMKLKGMAAAGRSQGQHKQRIWVNISLSGIKIIDEKTGVIEHEHPVNKISFIARDVTDNRAFGYVCGGEGQHQFFAIKTGQQAEPLVVDLKDLFQVIYNVKKKEEDKKKVEEANKAEENGSEALMTLDDQANKLKLGVDQMDLFGDMSTPPDLNSPTESKDILLVDLNSEIDTNQNSLRENPFLTNGVTSCSLPRPKPQASFLPENAFSANLNFFPTPNPDPFRDDPFAQPDQSAPSSFDSLTSPDQKKASLSSSSTPQSKGPLNGDTDYFGQQFDQLSNRTGKPEAQGGPWPYPSSQTQQAVRTQNGVSEREQNGFHIKSSPNPFVGSPPKGLSVPNGVKQDLESSVQSSAHDSIAIIPPPQSTKPGRGRRTAKSSANDLLASDIFASEPPGQMSPTGQPAVPQSNFLDLFKGNAPAPVGPLVGLGTVPVTPPQAGPWTPVVYSPSTTVVPGAIISGQPPSFRQPLVFGTTPAVQVWNQSPSFATPASPPPPTVWCPTTSVAPNAWSSTSPLGNPFQSNNIFPPPTMSTQSSPQPMMSSVLATPPQPPPRNGPLKDIPSDAFTGLDPLGDKEVKEVKEMFKDFQLRQPPLVPSRKGETPPSGTSSAFSSYFNNKVGIPQEHVDHDDFDANQLLNKINEPPKPAPRQGVLLGTKSADNSLENPFSKGFSSSNPSVVSQPASSDPHRSPFGNPFA
partner: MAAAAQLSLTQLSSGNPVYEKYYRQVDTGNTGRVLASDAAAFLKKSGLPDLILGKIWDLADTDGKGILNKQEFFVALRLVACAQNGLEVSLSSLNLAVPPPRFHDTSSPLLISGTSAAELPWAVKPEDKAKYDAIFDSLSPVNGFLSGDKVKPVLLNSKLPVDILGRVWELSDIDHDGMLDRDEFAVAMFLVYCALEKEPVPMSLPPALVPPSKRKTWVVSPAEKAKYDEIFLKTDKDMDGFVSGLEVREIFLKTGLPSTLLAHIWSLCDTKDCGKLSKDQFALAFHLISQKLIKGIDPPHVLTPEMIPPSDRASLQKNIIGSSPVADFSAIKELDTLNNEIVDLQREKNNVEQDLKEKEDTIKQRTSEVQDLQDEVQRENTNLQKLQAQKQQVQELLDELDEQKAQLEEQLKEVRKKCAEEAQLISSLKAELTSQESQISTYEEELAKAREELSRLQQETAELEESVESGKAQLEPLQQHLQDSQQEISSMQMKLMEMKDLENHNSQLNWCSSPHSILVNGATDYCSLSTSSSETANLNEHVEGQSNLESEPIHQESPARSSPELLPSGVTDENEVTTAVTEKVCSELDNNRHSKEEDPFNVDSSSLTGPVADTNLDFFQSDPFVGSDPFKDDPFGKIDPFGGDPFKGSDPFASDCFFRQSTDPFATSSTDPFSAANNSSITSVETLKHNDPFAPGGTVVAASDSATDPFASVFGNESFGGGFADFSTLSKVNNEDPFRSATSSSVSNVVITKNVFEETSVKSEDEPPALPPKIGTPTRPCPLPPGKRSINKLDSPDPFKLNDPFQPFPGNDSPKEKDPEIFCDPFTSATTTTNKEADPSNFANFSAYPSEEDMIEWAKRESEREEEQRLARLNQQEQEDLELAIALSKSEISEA
B2: Disabled homolog 2 (Mus musculus), P98078-1 (parent)
chain: B1 chain

Variants of: B1
Conditions: with eps15_human EPS15, P42566

effect of a mutation on the interaction	Variant
disrupting interaction	F589V;F736V;F765V

Variants of: B2
Conditions: with itsn1_mouse Itsn1, Q9Z0R4
Sequence of itsn1_mouse Itsn1, Q9Z0R4 (Q9Z0R4 whole entry): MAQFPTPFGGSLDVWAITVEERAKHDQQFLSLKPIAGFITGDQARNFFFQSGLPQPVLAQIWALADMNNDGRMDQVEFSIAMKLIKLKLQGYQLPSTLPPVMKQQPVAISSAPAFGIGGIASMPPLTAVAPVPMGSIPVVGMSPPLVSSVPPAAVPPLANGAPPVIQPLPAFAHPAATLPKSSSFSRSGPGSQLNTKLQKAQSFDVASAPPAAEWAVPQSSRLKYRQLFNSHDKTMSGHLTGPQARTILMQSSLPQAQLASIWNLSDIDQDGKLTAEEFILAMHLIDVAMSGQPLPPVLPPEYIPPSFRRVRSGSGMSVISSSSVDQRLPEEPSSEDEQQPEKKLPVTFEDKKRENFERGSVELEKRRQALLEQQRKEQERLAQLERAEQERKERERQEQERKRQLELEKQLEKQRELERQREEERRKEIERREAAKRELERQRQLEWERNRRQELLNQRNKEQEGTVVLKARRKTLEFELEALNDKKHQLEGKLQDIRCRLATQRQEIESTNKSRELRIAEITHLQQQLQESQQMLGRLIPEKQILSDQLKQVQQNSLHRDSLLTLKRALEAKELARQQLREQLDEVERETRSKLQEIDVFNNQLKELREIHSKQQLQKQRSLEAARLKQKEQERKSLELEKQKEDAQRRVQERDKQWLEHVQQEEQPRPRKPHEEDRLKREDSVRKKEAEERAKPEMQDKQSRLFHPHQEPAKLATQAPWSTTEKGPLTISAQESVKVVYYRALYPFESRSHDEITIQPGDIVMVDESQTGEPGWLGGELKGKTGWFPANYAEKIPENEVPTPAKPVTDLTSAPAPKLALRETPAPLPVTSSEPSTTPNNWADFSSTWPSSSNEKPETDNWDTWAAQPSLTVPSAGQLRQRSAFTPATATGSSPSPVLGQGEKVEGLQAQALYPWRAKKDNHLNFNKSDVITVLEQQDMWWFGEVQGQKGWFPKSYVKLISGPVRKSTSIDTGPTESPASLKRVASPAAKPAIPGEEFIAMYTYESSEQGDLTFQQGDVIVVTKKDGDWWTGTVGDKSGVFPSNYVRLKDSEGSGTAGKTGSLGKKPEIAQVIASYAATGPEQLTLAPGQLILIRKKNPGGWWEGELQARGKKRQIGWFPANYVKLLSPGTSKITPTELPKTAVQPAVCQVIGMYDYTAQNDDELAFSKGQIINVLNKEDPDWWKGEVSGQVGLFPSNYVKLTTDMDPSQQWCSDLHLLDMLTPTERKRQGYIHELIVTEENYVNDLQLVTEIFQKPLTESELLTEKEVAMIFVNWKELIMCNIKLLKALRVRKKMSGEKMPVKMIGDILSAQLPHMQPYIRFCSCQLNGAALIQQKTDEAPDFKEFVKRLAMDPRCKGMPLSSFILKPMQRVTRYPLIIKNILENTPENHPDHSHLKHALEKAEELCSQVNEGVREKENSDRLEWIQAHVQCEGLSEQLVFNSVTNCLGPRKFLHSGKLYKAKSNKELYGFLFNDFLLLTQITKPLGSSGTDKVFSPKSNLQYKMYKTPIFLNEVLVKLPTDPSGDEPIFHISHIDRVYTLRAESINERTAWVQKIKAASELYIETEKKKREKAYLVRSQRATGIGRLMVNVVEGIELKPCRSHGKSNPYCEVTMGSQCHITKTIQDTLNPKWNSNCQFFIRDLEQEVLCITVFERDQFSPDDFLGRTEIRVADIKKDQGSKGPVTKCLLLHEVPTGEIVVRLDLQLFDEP

effect of a mutation on the interaction	Variant
decreasing interaction	F255V;F398V
disrupting interaction	F255V;F398V;F589V;F736V;F765V
decreasing interaction	F589V;F736V;F765V
